# Patent US10941182 (Amgen, dated 2021)
# Starred links: 1 amine or outer side, 2 acyl side, 3 side chain; linkers in the order of their positions; H or OH if unused. Non-standard residues stand in square brackets, D forms with d. *: point of attachment. AC4Abu = α-carboxy-4-aminobutyric acid, O=C(C(CCN[*:1])C(=O)[*:3])[*:2]; dBip = N[C@H](Cc1ccc(-c2ccccc2)cc1)C(=O)O; Oic = O=C(O)[C@@H]1C[C@@H]2CCCC[C@@H]2N1; Phe(4-Cl) = N[C@@H](Cc1ccc(Cl)cc1)C(=O)O; dPhe(4-Cl) = N[C@H](Cc1ccc(Cl)cc1)C(=O)O; Phe(4-I) = N[C@@H](Cc1ccc(I)cc1)C(=O)O; γGlu = O=C(O)[C@H](CCC(=O)[*:2])N[*:1]; HOOC(CH2)8CO = O=C(O)CCCCCCCCC(=O)*; NMeR = CN[C@@H](CCCNC(=N)N)C(=O)O; Tridecanoyl = CCCCCCCCCCCCC(=O)*; hArg = N=C(N)NCCCC[C@H](N)C(=O)O; Cha = N[C@@H](CC1CCCCC1)C(=O)O; NMeL = CN[C@@H](CC(C)C)C(=O)O; αMeL = CC(C)C[C@](C)(N)C(=O)O; β3hN = NC(=O)C[C@H](N)CC(=O)O; β3hL = CC(C)C[C@H](N)CC(=O)O; αMeP = C[C@@]1(C(=O)O)CCCN1; Nle = CCCC[C@H](N)C(=O)O; AEEA = NCCOCCOCC(=O)O; Aib = CC(C)(N)C(=O)O; BLeu = β-leucine
# T1: human APJ receptor (human, UniProt P35414 1-380)
# T1 sequence (looked up): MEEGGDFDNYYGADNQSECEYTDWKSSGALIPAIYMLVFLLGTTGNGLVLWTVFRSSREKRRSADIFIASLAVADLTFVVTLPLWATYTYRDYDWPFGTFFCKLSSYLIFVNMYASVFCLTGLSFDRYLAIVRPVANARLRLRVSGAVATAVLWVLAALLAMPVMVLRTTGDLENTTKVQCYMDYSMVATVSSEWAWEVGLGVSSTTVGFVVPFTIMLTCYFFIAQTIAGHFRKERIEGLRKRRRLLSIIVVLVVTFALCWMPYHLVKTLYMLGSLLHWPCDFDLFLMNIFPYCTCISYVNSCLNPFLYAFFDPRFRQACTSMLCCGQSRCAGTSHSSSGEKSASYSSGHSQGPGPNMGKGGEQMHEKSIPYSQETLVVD
# T2: rat APJ receptor (rat, UniProt Q9JHG3 1-377)
# T2 sequence (looked up): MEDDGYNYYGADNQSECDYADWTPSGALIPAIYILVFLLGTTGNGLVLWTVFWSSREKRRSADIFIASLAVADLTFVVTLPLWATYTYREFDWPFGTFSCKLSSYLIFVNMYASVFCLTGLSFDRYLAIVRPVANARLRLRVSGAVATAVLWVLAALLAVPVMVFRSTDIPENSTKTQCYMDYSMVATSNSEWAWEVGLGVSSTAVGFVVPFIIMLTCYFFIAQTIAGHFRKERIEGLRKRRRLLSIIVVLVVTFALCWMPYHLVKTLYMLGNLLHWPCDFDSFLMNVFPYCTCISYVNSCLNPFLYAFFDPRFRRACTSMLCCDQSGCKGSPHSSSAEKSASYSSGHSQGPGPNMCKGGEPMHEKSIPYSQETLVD
# B1: SEQ ID NO: 533 (peptide)
# peptide: Tridecanoyl-[AC4Abu][AC4Abu][dQ]RP[NMeR][Cha]SHKG[Oic][Nle][Aib][Phe(4-Cl)]-OH
# SMILES: CCCCCCCCCCCCC(=O)NCCC(C(=O)O)C(=O)NCCC(C(=O)O)C(=O)N[C@H](CCC(N)=O)C(=O)N[C@@H](CCCNC(=N)N)C(=O)N1CCC[C@H]1C(=O)N(C)[C@@H](CCCNC(=N)N)C(=O)N[C@@H](CC1CCCCC1)C(=O)N[C@@H](CO)C(=O)N[C@@H](Cc1c[nH]cn1)C(=O)N[C@@H](CCCCN)C(=O)NCC(=O)N1[C@H](C(=O)N[C@@H](CCCC)C(=O)NC(C)(C)C(=O)N[C@@H](Cc2ccc(Cl)cc2)C(=O)O)C[C@@H]2CCCC[C@@H]21
# B2: SEQ ID NO: 288 (peptide)
# peptide: {HOOC(CH2)8CO}-[γGlu][AEEA][AEEA]Q[hArg]P[dR][NMeL]SHKG[Oic][Phe(4-I)]P[dBip]-OH
# SMILES: CC(C)C[C@@H](C(=O)N[C@@H](CO)C(=O)N[C@@H](Cc1c[nH]cn1)C(=O)N[C@@H](CCCCN)C(=O)NCC(=O)N1[C@H](C(=O)N[C@@H](Cc2ccc(I)cc2)C(=O)N2CCC[C@H]2C(=O)N[C@H](Cc2ccc(-c3ccccc3)cc2)C(=O)O)C[C@@H]2CCCC[C@@H]21)N(C)C(=O)[C@@H](CCCNC(=N)N)NC(=O)[C@@H]1CCCN1C(=O)[C@H](CCCCNC(=N)N)NC(=O)[C@H](CCC(N)=O)NC(=O)COCCOCCNC(=O)COCCOCCNC(=O)CC[C@H](NC(=O)CCCCCCCCC(=O)O)C(=O)O
# B3: SEQ ID NO: 398 (peptide)
# peptide: XXXXXXXQRPRLSHKGPXPF
# modifications: {TDA}[AC4Abu][Aeea][Aeea][Aeea][Aeea][Aeea][Aeea]QRP[NMeArg]LSHKGP[Nle]P[4-Cl-F]{COOH}
# B4: SEQ ID NO: 535 (peptide)
# peptide: Tridecanoyl-[AC4Abu][AC4Abu][AEEA][dQ]RP[NMeR][Cha]SHKG[Oic][Nle][Aib][Phe(4-Cl)]-OH
# SMILES: CCCCCCCCCCCCC(=O)NCCC(C(=O)O)C(=O)NCCC(C(=O)O)C(=O)NCCOCCOCC(=O)N[C@H](CCC(N)=O)C(=O)N[C@@H](CCCNC(=N)N)C(=O)N1CCC[C@H]1C(=O)N(C)[C@@H](CCCNC(=N)N)C(=O)N[C@@H](CC1CCCCC1)C(=O)N[C@@H](CO)C(=O)N[C@@H](Cc1c[nH]cn1)C(=O)N[C@@H](CCCCN)C(=O)NCC(=O)N1[C@H](C(=O)N[C@@H](CCCC)C(=O)NC(C)(C)C(=O)N[C@@H](Cc2ccc(Cl)cc2)C(=O)O)C[C@@H]2CCCC[C@@H]21
# B5: SEQ ID NO: 420 (peptide)
# peptide: Tridecanoyl-[γGlu][AEEA][AEEA][β3hN]RP[NMeR]LSHKGP[Nle]P[Phe(4-Cl)]-OH
# SMILES: CCCCCCCCCCCCC(=O)N[C@@H](CCC(=O)NCCOCCOCC(=O)NCCOCCOCC(=O)N[C@@H](CC(N)=O)CC(=O)N[C@@H](CCCNC(=N)N)C(=O)N1CCC[C@H]1C(=O)N(C)[C@@H](CCCNC(=N)N)C(=O)N[C@@H](CC(C)C)C(=O)N[C@@H](CO)C(=O)N[C@@H](Cc1c[nH]cn1)C(=O)N[C@@H](CCCCN)C(=O)NCC(=O)N1CCC[C@H]1C(=O)N[C@@H](CCCC)C(=O)N1CCC[C@H]1C(=O)N[C@@H](Cc1ccc(Cl)cc1)C(=O)O)C(=O)O
# B6: SEQ ID NO: 300 (peptide)
# peptide: Tridecanoyl-[γGlu][AEEA][AEEA][β3hL][hArg]P[NMeR][Cha]SHKG[Oic][Nle]P[dPhe(4-Cl)]-OH
# SMILES: CCCCCCCCCCCCC(=O)N[C@@H](CCC(=O)NCCOCCOCC(=O)NCCOCCOCC(=O)N[C@H](CC(=O)N[C@@H](CCCCNC(=N)N)C(=O)N1CCC[C@H]1C(=O)N(C)[C@@H](CCCNC(=N)N)C(=O)N[C@@H](CC1CCCCC1)C(=O)N[C@@H](CO)C(=O)N[C@@H](Cc1c[nH]cn1)C(=O)N[C@@H](CCCCN)C(=O)NCC(=O)N1[C@H](C(=O)N[C@@H](CCCC)C(=O)N2CCC[C@H]2C(=O)N[C@H](Cc2ccc(Cl)cc2)C(=O)O)C[C@@H]2CCCC[C@@H]21)CC(C)C)C(=O)O
# B7: SEQ ID NO: 375 (peptide)
# peptide: Tridecanoyl-[γGlu][AEEA][AEEA][αMeL]RP[NMeR][αMeL]SHKG[Oic][Nle]P[Phe(4-Cl)]-OH
# SMILES: CCCCCCCCCCCCC(=O)N[C@@H](CCC(=O)NCCOCCOCC(=O)NCCOCCOCC(=O)N[C@@](C)(CC(C)C)C(=O)N[C@@H](CCCNC(=N)N)C(=O)N1CCC[C@H]1C(=O)N(C)[C@@H](CCCNC(=N)N)C(=O)N[C@@](C)(CC(C)C)C(=O)N[C@@H](CO)C(=O)N[C@@H](Cc1c[nH]cn1)C(=O)N[C@@H](CCCCN)C(=O)NCC(=O)N1[C@H](C(=O)N[C@@H](CCCC)C(=O)N2CCC[C@H]2C(=O)N[C@@H](Cc2ccc(Cl)cc2)C(=O)O)C[C@@H]2CCCC[C@@H]21)C(=O)O
# B8: SEQ ID NO: 534 (peptide)
# peptide: Tridecanoyl-[AC4Abu][AC4Abu][AEEA][AEEA][dQ]RP[NMeR][Cha]SHKG[Oic][Nle][Aib][Phe(4-Cl)]-OH
# SMILES: CCCCCCCCCCCCC(=O)NCCC(C(=O)O)C(=O)NCCC(C(=O)O)C(=O)NCCOCCOCC(=O)NCCOCCOCC(=O)N[C@H](CCC(N)=O)C(=O)N[C@@H](CCCNC(=N)N)C(=O)N1CCC[C@H]1C(=O)N(C)[C@@H](CCCNC(=N)N)C(=O)N[C@@H](CC1CCCCC1)C(=O)N[C@@H](CO)C(=O)N[C@@H](Cc1c[nH]cn1)C(=O)N[C@@H](CCCCN)C(=O)NCC(=O)N1[C@H](C(=O)N[C@@H](CCCC)C(=O)NC(C)(C)C(=O)N[C@@H](Cc2ccc(Cl)cc2)C(=O)O)C[C@@H]2CCCC[C@@H]21
# B9: SEQ ID NO: 299 (peptide)
# peptide: Tridecanoyl-[γGlu][AEEA][AEEA][β3hN][hArg]P[NMeR][Cha]SHKG[Oic][Nle]P[dPhe(4-Cl)]-OH
# SMILES: CCCCCCCCCCCCC(=O)N[C@@H](CCC(=O)NCCOCCOCC(=O)NCCOCCOCC(=O)N[C@@H](CC(N)=O)CC(=O)N[C@@H](CCCCNC(=N)N)C(=O)N1CCC[C@H]1C(=O)N(C)[C@@H](CCCNC(=N)N)C(=O)N[C@@H](CC1CCCCC1)C(=O)N[C@@H](CO)C(=O)N[C@@H](Cc1c[nH]cn1)C(=O)N[C@@H](CCCCN)C(=O)NCC(=O)N1[C@H](C(=O)N[C@@H](CCCC)C(=O)N2CCC[C@H]2C(=O)N[C@H](Cc2ccc(Cl)cc2)C(=O)O)C[C@@H]2CCCC[C@@H]21)C(=O)O
# B10: SEQ ID NO: 536 (peptide)
# peptide: Tridecanoyl-[AC4Abu][AEEA][AC4Abu][dQ]RP[NMeR][Cha]SHKG[Oic][Nle][Aib][Phe(4-Cl)]-OH
# SMILES: CCCCCCCCCCCCC(=O)NCCC(C(=O)O)C(=O)NCCOCCOCC(=O)NCCC(C(=O)O)C(=O)N[C@H](CCC(N)=O)C(=O)N[C@@H](CCCNC(=N)N)C(=O)N1CCC[C@H]1C(=O)N(C)[C@@H](CCCNC(=N)N)C(=O)N[C@@H](CC1CCCCC1)C(=O)N[C@@H](CO)C(=O)N[C@@H](Cc1c[nH]cn1)C(=O)N[C@@H](CCCCN)C(=O)NCC(=O)N1[C@H](C(=O)N[C@@H](CCCC)C(=O)NC(C)(C)C(=O)N[C@@H](Cc2ccc(Cl)cc2)C(=O)O)C[C@@H]2CCCC[C@@H]21
# Molecular target: T1, human APJ receptor
# Assay: cell-based or functional assay
row,Binder,EC50 Human APJ Receptor [nM]
1,XXXLRPRLSHKGPXPF ({TDA}[AC4Abu][Aeea][Aeea][BhLeu]RP[NMeArg]LSHKGP[Nle]P[4-Cl-F]{COOH}) [SEQ ID NO: 421],0.0934
2,Tridecanoyl-[γGlu][AEEA][AEEA][BLeu][hArg]P[NMeR][Cha]SHKG[Oic][Nle]P[dPhe(4-Cl)]-OH [SEQ ID NO: 298],32.8
3,B1,0.629
4,Tridecanoyl-[AC4Abu][AEEA][AEEA][BLeu]R[αMeP][hArg][αMeL]SHKG[Oic][Nle][αMeP][Phe(4-Cl)]-OH [SEQ ID NO: 552],1.96
5,XXXXQRPRLSHKGPXPF ({TDA}[AC4Abu][AC4Abu][Aeea][Aeea]QRP[NMeArg]LSHKGP[Nle]P[4-Cl-F]{COOH}) [SEQ ID NO: 399],0.0335
6,XXXQRPRLSHKGPXPF ({Sebacicacid}[AC4Abu][Aeea][Aeea]QRP[NMeArg]LSHKGP[Nle]P[4-Cl-F]{COOH}) [SEQ ID NO: 509],0.179
7,B2,38.6
8,B3,0.0573
9,B4,0.798
10,B5,0.0525
11,B6,41.5
12,B7,0.155
13,B8,0.683
14,B9,24.4
15,B10,0.592
16,XXXQRPRLSHKGPXPF ({TDA}[AC4Abu][AC4Abu][Aeea]QRP[NMeArg]LSHKGP[Nle]P[4-Cl-F]{COOH}) [SEQ ID NO: 462],0.0154

# Molecular target: T2, rat APJ receptor
# Assay: cell-based or functional assay
row,Binder,EC50 Rat APJ Receptor [nM]
1,XXXLRPRLSHKGPXPF ({TDA}[AC4Abu][Aeea][Aeea][BhLeu]RP[NMeArg]LSHKGP[Nle]P[4-Cl-F]{COOH}) [SEQ ID NO: 421],0.285
2,Tridecanoyl-[γGlu][AEEA][AEEA][BLeu][hArg]P[NMeR][Cha]SHKG[Oic][Nle]P[dPhe(4-Cl)]-OH [SEQ ID NO: 298],24.9
3,B1,3.88
4,Tridecanoyl-[AC4Abu][AEEA][AEEA][BLeu]R[αMeP][hArg][αMeL]SHKG[Oic][Nle][αMeP][Phe(4-Cl)]-OH [SEQ ID NO: 552],4.88
5,XXXXQRPRLSHKGPXPF ({TDA}[AC4Abu][AC4Abu][Aeea][Aeea]QRP[NMeArg]LSHKGP[Nle]P[4-Cl-F]{COOH}) [SEQ ID NO: 399],0.104
6,XXXQRPRLSHKGPXPF ({Sebacicacid}[AC4Abu][Aeea][Aeea]QRP[NMeArg]LSHKGP[Nle]P[4-Cl-F]{COOH}) [SEQ ID NO: 509],0.865
7,B2,38.5
8,B3,0.116
9,B4,5.15
10,B5,0.0838
11,B6,36.4
12,B7,0.288
13,B8,3.75
14,B9,14.6
15,B10,2.03
16,XXXQRPRLSHKGPXPF ({TDA}[AC4Abu][AC4Abu][Aeea]QRP[NMeArg]LSHKGP[Nle]P[4-Cl-F]{COOH}) [SEQ ID NO: 462],0.0793
